The values that follow come from article PMC9352680, “A comprehensive thermodynamic model for RNA binding by the Saccharomyces cerevisiae Pumilio protein PUF4”.

T1: PUF4 RNA-binding domain (Saccharomyces cerevisiae, UniProt P25339 537-888)
T1 sequence: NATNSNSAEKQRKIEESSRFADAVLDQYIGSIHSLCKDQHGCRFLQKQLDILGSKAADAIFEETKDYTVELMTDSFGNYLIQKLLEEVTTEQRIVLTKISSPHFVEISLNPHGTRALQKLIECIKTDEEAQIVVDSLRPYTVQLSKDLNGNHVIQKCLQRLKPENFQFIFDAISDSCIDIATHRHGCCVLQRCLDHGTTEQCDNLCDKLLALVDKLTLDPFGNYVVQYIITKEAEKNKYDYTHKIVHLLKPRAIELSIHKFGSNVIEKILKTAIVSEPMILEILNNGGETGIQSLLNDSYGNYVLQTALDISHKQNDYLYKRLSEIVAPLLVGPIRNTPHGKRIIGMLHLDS

The target in the data set is T1, PUF4 RNA-binding domain. Description: Mg; RNA-MaP; 20 mM Na-HEPES pH 7.4, 30 mM KOAc, 0.75 mM MgCl2, 0.1% Tween-20, 5% glycerol, 0.1 mg/mL BSA, 2 mM DTT; 25 C; 0.0125-409.6 nM protein. The note with it: tags: N-His6-TEV cleaved; C-SNAP kept, Cy3B-labelled; label: tethered on chip by stalled RNA polymerase.
UCUCUUUUACACUUAUUAACUCUCUU (ssRNA) [Id_ii_S1_P5E.4_K5.3_C5.2_[C-2T]_H5.3_A5.1_F5.1_T5.2_[T11A]_[A12C]]: the Kd is more than 2300 nM.

For the molecule UCUCUUUAACACUUAUUACGUCUCUU (ssRNA) [Id_ii_S1_P5E.4_K5.3_C5.2_[C-2T]_[T-1A]_H5.3_A5.1_F5.1_T5.2_[T11C]_[A12G]], the dissociation constant Kd was more than 2300 nM.

Molecule UCUCUUUGACACUUAUUAUCUCUCUU (ssRNA) [Id_ii_S1_P5E.4_K5.3_C5.2_[C-2T]_[T-1G]_H5.3_A5.1_F5.1_T5.2_[A12C]] registered a Kd of more than 2300 nM.

In turn, UCUCUUAGACACUUAUUACCUCUCUU (ssRNA) [Id_ii_S1_P5E.4_K5.3_C5.2_[C-2A]_[T-1G]_H5.3_A5.1_F5.1_T5.2_[T11C]_[A12C]] came in with a Kd of more than 2300 nM.

In the case of UCUCUUAGACACUUAUUACUUCUCUU (ssRNA) [Id_ii_S1_P5E.4_K5.3_C5.2_[C-2A]_[T-1G]_H5.3_A5.1_F5.1_T5.2_[T11C]_[A12T]], the Kd was more than 2300 nM.

Take UCUCUUAGACACUUAUUACAUCUCUU (ssRNA) [Id_ii_S1_P5E.4_K5.3_C5.2_[C-2A]_[T-1G]_H5.3_A5.1_F5.1_T5.2_[T11C]]: the Kd is more than 2300 nM.

UCUCUUUUACACUUAUUACCUCUCUU (ssRNA) [Id_ii_S1_P5E.4_K5.3_C5.2_[C-2T]_H5.3_A5.1_F5.1_T5.2_[T11C]_[A12C]] had a Kd of more than 2300 nM.

The molecule UCUCUUAGACACUUAUUAACUCUCUU (ssRNA) [Id_ii_S1_P5E.4_K5.3_C5.2_[C-2A]_[T-1G]_H5.3_A5.1_F5.1_T5.2_[T11A]_[A12C]] gave a Kd of more than 2300 nM.

Regarding UCUCUUUUACACUUAUUAAAUCUCUU (ssRNA) [Id_ii_S1_P5E.4_K5.3_C5.2_[C-2T]_H5.3_A5.1_F5.1_T5.2_[T11A]], the Kd was more than 2300 nM.

In the case of UCUCUUUCACACUUAUUAAUUCUCUU (ssRNA) [Id_ii_S1_P5E.4_K5.3_C5.2_[C-2T]_[T-1C]_H5.3_A5.1_F5.1_T5.2_[T11A]_[A12T]], the Kd is more than 2300 nM.

The molecule UCUCUUUUACACUUAUUAUGUCUCUU (ssRNA) [Id_ii_S1_P5E.4_K5.3_C5.2_[C-2T]_H5.3_A5.1_F5.1_T5.2_[A12G]] displayed a Kd of more than 2300 nM.

The molecule UCUCUUGUACACUUAUUAUAUCUCUU (ssRNA) [Id_ii_S1_P5E.4_K5.3_C5.2_[C-2G]_H5.3_A5.1_F5.1_T5.2] registered a Kd of 3.91 nM.

Regarding UCUCUUUAACACUUAUUAUAUCUCUU (ssRNA) [Id_ii_S1_P5E.4_K5.3_C5.2_[C-2T]_[T-1A]_H5.3_A5.1_F5.1_T5.2], the Kd was more than 2300 nM.

Take UCUCUUUAACACUUAUUACCUCUCUU (ssRNA) [Id_ii_S1_P5E.4_K5.3_C5.2_[C-2T]_[T-1A]_H5.3_A5.1_F5.1_T5.2_[T11C]_[A12C]]: the Kd was more than 2300 nM.

In turn, UCUCUUUGUAUUACUUUCUCUU (ssRNA) [Ib_S1_P5E.1_K5.1_C5.1_H5.1_A5.1_F5.1_[T8C]_[A10T]_T5.1] had a Kd of 44.6 nM.

The molecule UCUCUUGUACACUUAUUACUUCUCUU (ssRNA) [Id_ii_S1_P5E.4_K5.3_C5.2_[C-2G]_H5.3_A5.1_F5.1_T5.2_[T11C]_[A12T]] came in with a Kd of 5.88 nM.

For UCUCUUGUACACUUAUUAUCUCUCUU (ssRNA) [Id_ii_S1_P5E.4_K5.3_C5.2_[C-2G]_H5.3_A5.1_F5.1_T5.2_[A12C]], the affinity, expressed as Kd, was 2.94 nM.

Consider UCUCUUUAACACUUAUUACAUCUCUU (ssRNA) [Id_ii_S1_P5E.4_K5.3_C5.2_[C-2T]_[T-1A]_H5.3_A5.1_F5.1_T5.2_[T11C]], for which the Kd was more than 2300 nM.

In turn, UCUCUUUAACACUUAUUAAUUCUCUU (ssRNA) [Id_ii_S1_P5E.4_K5.3_C5.2_[C-2T]_[T-1A]_H5.3_A5.1_F5.1_T5.2_[T11A]_[A12T]] displayed a Kd of more than 2300 nM.

UCUCUUUCACACUUAUUAUUUCUCUU (ssRNA) [Id_ii_S1_P5E.4_K5.3_C5.2_[C-2T]_[T-1C]_H5.3_A5.1_F5.1_T5.2_[A12T]] had a Kd of more than 2300 nM.

UCUCUUUAACACUUAUUAUCUCUCUU (ssRNA) [Id_ii_S1_P5E.4_K5.3_C5.2_[C-2T]_[T-1A]_H5.3_A5.1_F5.1_T5.2_[A12C]] registered a Kd of more than 2300 nM.

UCUCUUUCACACUUAUUAACUCUCUU (ssRNA) [Id_ii_S1_P5E.4_K5.3_C5.2_[C-2T]_[T-1C]_H5.3_A5.1_F5.1_T5.2_[T11A]_[A12C]] had a Kd of more than 2300 nM.

The molecule UCUCUUUAACACUUAUUAUUUCUCUU (ssRNA) [Id_ii_S1_P5E.4_K5.3_C5.2_[C-2T]_[T-1A]_H5.3_A5.1_F5.1_T5.2_[A12T]] had a Kd of more than 2300 nM.

For the molecule UCUCUUUAACACUUAUUAAAUCUCUU (ssRNA) [Id_ii_S1_P5E.4_K5.3_C5.2_[C-2T]_[T-1A]_H5.3_A5.1_F5.1_T5.2_[T11A]], the Kd was more than 2300 nM.

For the molecule UCUCUUUUACACUUAUUAUCUCUCUU (ssRNA) [Id_ii_S1_P5E.4_K5.3_C5.2_[C-2T]_H5.3_A5.1_F5.1_T5.2_[A12C]], the Kd was more than 2300 nM.

On to UCUCUUUCACACUUAUUACAUCUCUU (ssRNA) [Id_ii_S1_P5E.4_K5.3_C5.2_[C-2T]_[T-1C]_H5.3_A5.1_F5.1_T5.2_[T11C]], for which the Kd was more than 2300 nM.

As to UCUCUUGUACACUUAUUAAUUCUCUU (ssRNA) [Id_ii_S1_P5E.4_K5.3_C5.2_[C-2G]_H5.3_A5.1_F5.1_T5.2_[T11A]_[A12T]], the Kd was found to be 4.75 nM.

Take UCUCUUUCACACUUAUUACUUCUCUU (ssRNA) [Id_ii_S1_P5E.4_K5.3_C5.2_[C-2T]_[T-1C]_H5.3_A5.1_F5.1_T5.2_[T11C]_[A12T]]: the Kd was more than 2300 nM.

For the molecule UCUCUUUCACACUUAUUAGCUCUCUU (ssRNA) [Id_ii_S1_P5E.4_K5.3_C5.2_[C-2T]_[T-1C]_H5.3_A5.1_F5.1_T5.2_[T11G]_[A12C]], the Kd was more than 2300 nM.

As to UCUCUUUUACACUUAUUAUAUCUCUU (ssRNA) [Id_ii_S1_P5E.4_K5.3_C5.2_[C-2T]_H5.3_A5.1_F5.1_T5.2], the Kd was more than 2300 nM.

Consider UCUCUUUCACACUUAUUAUAUCUCUU (ssRNA) [Id_ii_S1_P5E.4_K5.3_C5.2_[C-2T]_[T-1C]_H5.3_A5.1_F5.1_T5.2], for which the Kd is more than 2300 nM.

In turn, UCUCUUUCACACUUAUUAUCUCUCUU (ssRNA) [Id_ii_S1_P5E.4_K5.3_C5.2_[C-2T]_[T-1C]_H5.3_A5.1_F5.1_T5.2_[A12C]] returned a Kd of more than 2300 nM.

UCUCUUUAACACUUAUUACUUCUCUU (ssRNA) [Id_ii_S1_P5E.4_K5.3_C5.2_[C-2T]_[T-1A]_H5.3_A5.1_F5.1_T5.2_[T11C]_[A12T]]: the Kd is more than 2300 nM.

UCUCUUUCACACUUAUUAAAUCUCUU (ssRNA) [Id_ii_S1_P5E.4_K5.3_C5.2_[C-2T]_[T-1C]_H5.3_A5.1_F5.1_T5.2_[T11A]] displayed a Kd of more than 2300 nM.

Turning to UCUCUUUGUAUUAUGGUCUCUU (ssRNA) [Ib_S1_P5E.1_K5.1_C5.1_H5.1_A5.1_F5.1_[T9G]_[A10G]_T5.1], the Kd was found to be 7.8 nM.

The molecule UCUCUUUCACACUUAUUACCUCUCUU (ssRNA) [Id_ii_S1_P5E.4_K5.3_C5.2_[C-2T]_[T-1C]_H5.3_A5.1_F5.1_T5.2_[T11C]_[A12C]] registered a Kd of more than 2300 nM.

As for UCUCUUUGUAUUAUGCUCUCUU (ssRNA) [Ib_S1_P5E.1_K5.1_C5.1_H5.1_A5.1_F5.1_[T9G]_[A10C]_T5.1], binding was characterised by a dissociation constant (Kd) of 15.2 nM.

Molecule UCUCUUUGUAUUAUCAUCUCUU (ssRNA) [Ia_S1_P5E.1_K5.1_C5.1_H5.1_A5.1_F5.1_[T9C]_T5.1] showed a Kd of 21.9 nM.

UCUCUUUCACACUUAUUACGUCUCUU (ssRNA) [Id_ii_S1_P5E.4_K5.3_C5.2_[C-2T]_[T-1C]_H5.3_A5.1_F5.1_T5.2_[T11C]_[A12G]] returned a Kd of more than 2300 nM.

Molecule UCUCUUUCACACUUAUUAUGUCUCUU (ssRNA) [Id_ii_S1_P5E.4_K5.3_C5.2_[C-2T]_[T-1C]_H5.3_A5.1_F5.1_T5.2_[A12G]] had a Kd of more than 2300 nM.

The molecule UCUCUUUGUAUUAUGUUCUCUU (ssRNA) [Ib_S1_P5E.1_K5.1_C5.1_H5.1_A5.1_F5.1_[T9G]_[A10T]_T5.1] came in with a Kd of 10.8 nM. This lies in the double-digit nanomolar range.

The molecule UCUCUUGUACACUUAUUAAAUCUCUU (ssRNA) [Id_ii_S1_P5E.4_K5.3_C5.2_[C-2G]_H5.3_A5.1_F5.1_T5.2_[T11A]] showed a Kd of 3.63 nM. Against the preceding molecule, the Kd is about 3-fold lower.

UCUCUUUUACACUUAUUAUUUCUCUU (ssRNA) [Id_ii_S1_P5E.4_K5.3_C5.2_[C-2T]_H5.3_A5.1_F5.1_T5.2_[A12T]]: the Kd is more than 2300 nM.

As for UCUCUUGUACACUUAUUAUUUCUCUU (ssRNA) [Id_ii_S1_P5E.4_K5.3_C5.2_[C-2G]_H5.3_A5.1_F5.1_T5.2_[A12T]], the Kd came to 3.73 nM.
